In PMC7155059, “Kinetic characterisation of Erv1, a key component for protein import and folding in yeast mitochondria” (The Febs Journal, 2019) one finds Km and kcat data, which are given here for 1 protein.

Substrate in the data set: OC(CS)C(O)CS
In words: oxygen consumption, Clark-type electrode. The data set is classed as biochemical, Saccharomyces cerevisiae. The note with it: electron donor, co-substrate O2 (air, ~250 μM), 1 μM Erv1, SOD1 10 units/mL, 50 mM Tris/HCl, 150 mM NaCl, 1 mM EDTA, pH 7.4, 25 °C.

B1: Erv1 (yeast Erv1) (Saccharomyces cerevisiae S288C) (protein)
chain: MKAIDKMTDNPPQEGLSGRKIIYDEDGKPCRSCNTLLDFQYVTGKISNGLKNLSSNGKLAGTGALTGEASELMPGSRTYRKVDPPDVEQLGRSSWTLLHSVAASYPAQPTDQQKGEMKQFLNIFSHIYPCNWCAKDFEKYIRENAPQVESREELGRWMCEAHNKVNKKLRKPKFDCNFWEKRWKDGWDE
notes: WT, ERV1 gene in pET-24a(+), E. coli Rosetta-gami 2, Ni-NTA then size exclusion
As a reminder, the Km is the concentration of substrate that gives half-maximal velocity. For orientation: kcat means the maximal rate divided by the concentration of active sites. For B1, the Km was found to be 1500 ± 100 µM and the kcat turned out to be 1.28 ± 0.03 s⁻¹.
